According to patent US6936706:

B1: murine-human chimeric BrE-3 antibody (ATCC HB 11199, Chimeric BrE-3 A1C10) (antibody, V domains shown)
VH: EVKLEESGGGLVQPGGSMKLSCAASGFTFSDAWMDWVRQSPEKGLEWVAEIRNKANNHATYYDESVKGRFTISRDDSKSRVYLQMISLRAEDTGLYYCTGEFANWGQGTLVTVSA
VL: DVVMTQTPLSLPVSLGDQASISCRSSQNLVHNNGNTYLYWFLQKSGQSPKLLIYRASIRFSGVPDRFSGSGSETDFTLKISRVEAEDLGVYFCFQGTHVPWTFGGGTKLEIK
B2: murine BrE-3 monoclonal antibody (ATCC No. HB 10028) (antibody, V domains shown)
VH: B1 VH
VL: B1 VL

Biological target: bacterial fusion protein 11-2 (a hybrid of b-galactosidase and human mammary mucin) (human) (UniProt P15941)
Test: competition RIA against 125I-labeled murine BrE-3 on 11-2 fusion protein; reciprocal of the competitor concentration giving 50% binding

| Binder | Ka [M⁻¹] |
| --- | --- |
| B1 | 2.68e+08 |
| B2 | 3.75e+08 |
